# Measured values taken from patent US20080138349A1 (MacroGenics, published 2008).
# Substitutions are numbered along the chain they refer to. Numbers in names are those of the source.
# T1: FcγRIIB (UniProt P31994 43-217, limits assumed)
# T1 construct: also called CD32B
# T1 sequence (looked up): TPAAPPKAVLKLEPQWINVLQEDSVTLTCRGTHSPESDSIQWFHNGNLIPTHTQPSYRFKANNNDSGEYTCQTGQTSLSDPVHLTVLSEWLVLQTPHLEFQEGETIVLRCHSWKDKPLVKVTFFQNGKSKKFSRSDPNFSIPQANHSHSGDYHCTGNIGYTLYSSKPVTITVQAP
# T2: FcγRIIB-Fc fusion protein, soluble dimeric: extracellular domain of FcγRIIB fused to the hinge-CH2-CH3 domain … (human, UniProt P31994 43-217, limits assumed)
# T2 construct: extracellular domain; also called FcRIIB-Fc; FcR2B; not shown: human IgG2 hinge-CH2-CH3
# T2 sequence (looked up): T1 sequence (looked up)
# B1: ch4-4-20 K288N, A330S, P396L (antibody)
# chain: EPKSCDKTHTCPPCPAPELLGGPSVFLFPPKPKDTLMISRTPEVTCVVVDVSHEDPEVKFNWYVDGVEVHNANTKPREEQYNSTYRVVSVLTVLHQDWLNGKEYKCKVSNKALPSPIEKTISKAKGQPREPQVYTLPPSREEMTKNQVSLTCLVKGFYPSDIAVEWESNGQPENNYKTTPLVLDSDGSFFLYSKLTVDKSRWQQGNVFSCSVMHEALHNHYTQKSLSLSPGK
# B2: ch4-4-20 Y319F, P352L, P396L (antibody)
# chain: B1 chain with N73K, Y104F, S115A, P137L
# B3: ch4-4-20 E293V, Q295E, A327T (antibody)
# chain: B1 chain with N73K, E78V, Q80E, A112T, S115A, L181P
# B4: ch4-4-20 V379M (antibody)
# chain 1: not shown
# chain 2: DVVMTQTPLSLPVSLGDQASISCRSSQSLVHSNGNTYLRWYLQKPGQSPKVLIYKVSNRFSGVPDRFSGSGSGTDFTLKISRVEAEDLGVYFCSQSTHVPWTFGGGTKLEIKRTVAAPSVFIFPPSDEQLKSGTASVVCLLNNFYPREAKVQWKVDNALQSGNSQESVTEQDSKDSTYSLSSTLTLSKADYEKHKVYACEVTHQGLSSPVTKSFNRGEC
# B5: ch4-4-20 K334E, T359N, T366S (antibody)
# chain 1: EVKLDETGGGLVQPGRPMKLSCVASGFTFSDYWMNWVRQSPEKGLEWVAQIRNKPYNYETYYSDSVKGRFTISRDDSKSSVYLQMNNLRVEDMGIYYCTGSYYGMDYWGQGTSVTVSSASTKGPSVFPLAPSSKSTSGGTAALGCLVKDYFPEPVTVSWNSGALTSGVHTFPAVLQSSGLYSLSSVVTVPSSSLGTQTYICNVNHKPSNTKVDKKVEPKSCDKTHTCPPCPAPELLGGPSVFLFPPKPKDTLMISRTPEVTCVVVDVSHEDPEVKFNWYVDGVEVHNAKTKPREEQYNSTYRVVSVLTVLHQDWLNGKEYKCKVSNKALPAPIEETISKAKGQPREPQVYTLPPSRDELNKNQVSLSCLVKGFYPSDIAVEWESNGQPENNYKTTPPVLDSDGSFFLYSKLTVDKSRWQQGNVFSCSVMHEALHNHYTQKSLSLSPGK
# chain 2: B4 chain 2
# B6: ch4-4-20 G316D, A378V, D399E (antibody)
# chain 1: B5 chain 1 with G317D, E335K, N360T, S367T, A379V, D400E
# chain 2: B4 chain 2
# B7: ch4-4-20 P247L, N421K (antibody)
# chain 1: not shown
# chain 2: B4 chain 2
# B8: ch4-4-20 V348M, K334N, F275I, Y202M, K147T (antibody)
# chain: ASTKGPSVFPLAPSSKSTSGGTAALGCLVTDYFPEPVTVSWNSGALTSGVHTFPAVLQSSGLYSLSSVVTVPSSSLGTQTYICNMNHKPSNTKVDKKVEPKSCDKTHTCPPCPAPELLGGPSVFLFPPKPKDTLMISRTPEVTCVVVDVSHEDPEVKINWYVDGVEVHNAKTKPREEQYNSTYRVVSVLTVLHQDWLNGKEYKCKVSNKALPAPIENTISKAKGQPREPQMYTLPPSRDELTKNQVSLTCLVKGFYPSDIAVEWESNGQPENNYKTTPPVLDSDGSFFLYSKLTVDKSRWQQGNVFSCSVMHEALHNHYTQKSLSLSPGK
# B9: ch4-4-20 D221E, D270E, V308A, Q311H, P396L, G402D (antibody)
# chain: B1 chain with D6E, D55E, N73K, V93A, Q96H, S115A, G187D
# B10: ch4-4-20 K317N, F423-deleted (antibody)
# chain: EPKSCDKTHTCPPCPAPELLGGPSVFLFPPKPKDTLMISRTPEVTCVVVDVSHEDPEVKFNWYVDGVEVHNAKTKPREEQYNSTYRVVSVLTVLHQDWLNGNEYKCKVSNKALPAPIEKTISKAKGQPREPQVYTLPPSREEMTKNQVSLTCLVKGFYPSDIAVEWESNGQPENNYKTTPPVLDSDGSFFLYSKLTVDKSRWQQGNVSCSVMHEALHNHYTQKSLSLSPGK
# B11: ch4-4-20 F243I, V379L, G420V (antibody)
# chain 1: B5 chain 1 with F244I, E335K, N360T, S367T, V380L, G421V
# chain 2: B4 chain 2
# B12: ch4-4-20 T215P, K274N, A287G, K334N, L365V, P396L (antibody)
# chain: PEPKSCDKTHTCPPCPAPELLGGPSVFLFPPKPKDTLMISRTPEVTCVVVDVSHEDPEVNFNWYVDGVEVHNGKTKPREEQYNSTYRVVSVLTVLHQDWLNGKEYKCKVSNKALPAPIENTISKAKGQPREPQVYTLPPSRDELTKNQVSVTCLVKGFYPSDIAVEWESNGQPENNYKTTPLVLDSDGSFFLYSKLTVDKSRWQQGNVFSCSVMHEALHNHYTQKSLSLSPGK
# B13: ch4-4-20 F243I, V379L (antibody)
# chain 1: not shown
# chain 2: B4 chain 2
# Biological target: T3, FcγRIIIA (UniProt P08637 17-208, limits assumed)
# T3 construct: also called CD16A
# T3 sequence (P08637 17-208 limits assumed): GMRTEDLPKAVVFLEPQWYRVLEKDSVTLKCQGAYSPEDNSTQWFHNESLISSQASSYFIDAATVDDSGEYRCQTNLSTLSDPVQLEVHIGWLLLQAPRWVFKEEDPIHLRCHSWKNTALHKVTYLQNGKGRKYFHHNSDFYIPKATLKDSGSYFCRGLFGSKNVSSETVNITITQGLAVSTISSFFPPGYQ
# Assay: ELISA
row,ELISA IIIA binding vs wt [X],Binder
1,5,B1
2,3.5,B2
3,1.4,B3
4,2,B4
5,1.5,B5
6,1.5,B6
7,3,B7

# Biological target: T3, FcγRIIIA
# Assay: ELISA
# Remark: another data set of the same source
row,"ELISA, OD [OD]",Binder
1,1,B1

# Biological target: T1, FcγRIIB
# Assay: ELISA
row,ELISA binding increase vs wt [x],Binder
1,0.75,B8
2,0.1,B9
3,7,B10
4,14,B6
5,3.5,B11
6,4,B12

# Biological target: T3, FcγRIIIA
# Assay: ELISA
# Remark: another data set of the same source
row,ELISA binding increase vs wt [x],Binder
1,0.5,B8
2,0.4,B3
3,3.6,B9
4,2,B4
5,1.5,B5
6,1.5,B6
7,3,B7

# Biological target: T4, soluble monomeric FcγRIIIA, the extracellular region of FcγRIIIA joined to the linker-AVITAG sequence (UniProt P08637 17-208, limits assumed)
# T4 construct: extracellular domain; also called FcRIIIA; FcR3A
# T4 sequence (P08637 17-208 limits assumed): as above
# Assay: BIAcore
Kd [nM],koff [s⁻¹],Binder
125,–,B2
160,0.167,B4
55.2,0.128,B5
72,0.117,B6
99.7,0.105,B13
62,0.108,B7

# Biological target: T2, FcγRIIB-Fc fusion protein, soluble …
# Assay: BIAcore
Kd [nM],koff [s⁻¹],Binder
86,–,B3
70,0.1,B4
72,0.11,B5
46,0.06,B6
120,0.113,B13
66,0.065,B7
93.4,0.101,B11
